Starred links: 1 amine or outer side, 2 acyl side, 3 side chain; linkers in the order of their positions; H or OH if unused. Positions of bridges follow the written chain, without caps; N, C: chain ends. Non-standard residues stand in square brackets, D forms with d. Primed or numbered codes have the meaning given here. *: point of attachment. Aph(2Ta5Sa)″ = 4-amino-L-phenylalanine, ring amine acylated by 5-sulfamoyl-thiophene-2-carboxylic acid, NS(=O)(=O)c1ccc(C(=O)Nc2ccc(C[C@H](N[*:1])C(=O)[*:2])cc2)s1; Aph(5SaPyr2) = 4-amino-L-phenylalanine, ring amine acylated by 5-sulfamoylpyridine-2-carboxylic acid, NS(=O)(=O)c1ccc(C(=O)Nc2ccc(C[C@H](N[*:1])C(=O)[*:2])cc2)nc1; Aph(4SaBz) = 4-aminophenylalanine, ring amine acylated with 4-sulfamoylbenzoic acid, NS(=O)(=O)c1ccc(C(=O)Nc2ccc(C[C@H](N[*:1])C(=O)[*:2])cc2)cc1; Af3(HO-Dga) = 3-aminophenylalanine, ring amine acylated with carboxymethoxy-acetic acid, O=C(COCC(=O)[*:3])Nc1cccc(C[C@H](N[*:1])C(=O)[*:2])c1; Af3(HYDAc) = 3-aminophenylalanine, ring amine acylated with hydantoin-5-acetic acid, O=C(CC1NC(=O)NC1=O)Nc1cccc(C[C@H](N[*:1])C(=O)[*:2])c1; Aph(SaPr) = 4-amino-L-phenylalanine, ring amine acylated by 3-sulfamoylpropanoic acid, NS(=O)(=O)CCC(=O)Nc1ccc(C[C@H](N[*:1])C(=O)[*:2])cc1; 3MeBn″ = 3-methylbenzylidene, m-xylene unit (from alpha,alpha'-dibromo-m-xylene) joined to both Cys S by thioether linkages; Phe(3-NHCO(CH2)3SO2NH2) = N[C@@H](Cc1cccc(NC(=O)CCCS(N)(=O)=O)c1)C(=O)O; DOTA = O=C(O)CN1CCN(CC(=O)O)CCN(CC(=O)*)CCN(CC(=O)O)CC1; Phe(3,4-Cl2) = N[C@@H](Cc1ccc(Cl)c(Cl)c1)C(=O)O; Phe(3-CF3) = N[C@@H](Cc1cccc(C(F)(F)F)c1)C(=O)O; PPAc = 4-carboxymethyl piperazine linker; mXylylene = c1cc(C[*:1])cc(C[*:2])c1; NH3PhSa = not defined here; NH4PhSa = not defined here; N4Inda = not defined here; Pip = O=C(O)[C@@H]1CCCCN1; PPAc″ = not defined here; APAc = not defined here; Dap = NC[C@H](N)C(=O)O
B1: 3BP-4456 (peptide)
peptide: {DOTA}-[Pip]YCE[dP]D[Phe(3-NHCO(CH2)3SO2NH2)]LTWSC-NH2
modifications: linker 3-12 via mXylylene
SMILES: CC(C)C[C@@H]1NC(=O)[C@H](Cc2cccc(NC(=O)CCCS(N)(=O)=O)c2)NC(=O)[C@H](CC(=O)O)NC(=O)[C@H]2CCCN2C(=O)[C@H](CCC(=O)O)NC(=O)[C@@H](NC(=O)[C@H](Cc2ccc(O)cc2)NC(=O)[C@@H]2CCCCN2C(=O)CN2CCN(CC(=O)O)CCN(CC(=O)O)CCN(CC(=O)O)CC2)CSCc2cccc(c2)CSC[C@@H](C(N)=O)NC(=O)[C@H](CO)NC(=O)[C@H](Cc2c[nH]c3ccccc23)NC(=O)[C@H]([C@@H](C)O)NC1=O

What follows are binders tested against T1, Fc-fusion protein of human carbonic anhydrase IX (human, UniProt Q16790 38-414) (assay: SPR, captured hCAIX-Fc; pKD category A: >8.0).
{DOTA-APAc}-VYCE[dP]D[Aph(4SaBz)]LTWSC-NH2 (linker 3-12 via mXylylene; reading uncertain) [3BP-4398] was tested, and the pKD was > 8 pkd. With {DOTA-PPAc″}-YCE[dP]D[Aph(2Ta5Sa)″]LTWSC-NH2 (linker 2-11 via mXylylene; reading uncertain) [3BP-4457] the pKD was > 8 pkd. In the case of {DOTA-APAc}-VYCE[dP]E(N4Inda)WLTWSC-NH2 (linker 3-12 via mXylylene; reading uncertain) [3BP-4387], the pKD is reported as > 8 pkd. {DOTA-APAc}-VYCE[dP]D[Af3(HYDAc)]LTWSC-NH2 (linker 3-12 via mXylylene; reading uncertain) [3BP-4371] was tested, and the pKD was > 8 pkd. With {DOTA-APAc}-VDCE[dP]D[Phe(3,4-Cl2)]LTW[Dap]C-NH2 (lactam 2-11; linker 3-12 via mXylylene; reading uncertain) [3BP-4439] the pKD was > 8 pkd. For {DOTA-PPAc″}-YCE[dP]DWLTWSC-NH2 (linker 2-11 via mXylylene; reading uncertain) [3BP-4446], the pKD was > 8 pkd. For {DOTA-APAc}-VDCE[dP]D[Phe(3-CF3)]LTW[Dap]C-NH2 (lactam 2-11; linker 3-12 via mXylylene; reading uncertain) [3BP-4440], the pKD was > 8 pkd. For B1, the pKD was > 8 pkd. For {DOTA-APAc}-VYCE[dP]D[Af3(HO-Dga)]LTWSC-NH2 (linker 3-12 via 3MeBn″; reading uncertain) [3BP-4368], the pKD was > 8 pkd. In the case of {DOTA-PPAc}-DCE[dP]D[Aph(SaPr)]LTW[Dap]C-NH2 (lactam 1-10; linker 2-11 via mXylylene) [3BP-4498], the pKD is reported as > 8 pkd. With {DOTA-APAc}-VYCE[dP]E(NH3PhSa)WLTWSC-NH2 (linker 3-12 via mXylylene; reading uncertain) [3BP-4441] the pKD was > 8 pkd. {DOTA-APAc}-VYCE[dP]E(NH4PhSa)WLTWSC-NH2 (linker 3-12 via mXylylene; reading uncertain) [3BP-4442] was tested, and the pKD was > 8 pkd.

These binders were tested against T1, Fc-fusion protein of human carbonic … (assay: SPR, captured hCAIX-Fc; t1/2 category A: >15.0 min).
Protocol: (§1) Stock solutions of test compounds were prepared by dissolving each compound in DMSO. DMSO stock solution were diluted 1:1000 in Running Buffer without DMSO. […] SPR binding analyses were performed in Single Cycle Kinetic (SCK) mode at 25° C.
(§2) For each test compound, SPR raw data in the form of resonance units (RU) were plotted as sensorgrams using the Biacore™ T200 control software. The signal from the blank sensorgram was subtracted from that of the test compound sensorgram (blank corrected). The blank corrected sensorgram was corrected for baseline drift by subtracting the sensorgram of a SCK run without the test compound (running buffer only). […] Raw data and fit results were imported as text files in IDBS. The pKD value (negative decadic logarithm of dissociation constant) was calculated in the IDBS excel template.
For {DOTA-APAc}-VYCE[dP]E(N4Inda)WLTWSC-NH2 (linker 3-12 via mXylylene; reading uncertain) [3BP-4387], the “t1/2 (half-life of the complex, SPR)” value was > 15 min. For B1, the “t1/2 (half-life of the complex, SPR)” value was > 15 min. For {DOTA-PPAc}-DCE[dP]D[Aph(SaPr)]LTW[Dap]C-NH2 (lactam 1-10; linker 2-11 via mXylylene) [3BP-4498], the “t1/2 (half-life of the complex, SPR)” value was > 15 min. For {DOTA-APAc}-VYCE[dP]E(NH3PhSa)WLTWSC-NH2 (linker 3-12 via mXylylene; reading uncertain) [3BP-4441], the “t1/2 (half-life of the complex, SPR)” value was > 15 min. For {DOTA-APAc}-VYCE[dP]E(NH4PhSa)WLTWSC-NH2 (linker 3-12 via mXylylene; reading uncertain) [3BP-4442], the “t1/2 (half-life of the complex, SPR)” value was > 15 min.

These binders were tested against T1, Fc-fusion protein of human carbonic … (assay: SPR, captured hCAIX-Fc; t1/2 category C: 2.1-5.0 min).
Protocol: as §1, §2
{DOTA-APAc}-VYCE[dP]D[Aph(4SaBz)]LTWSC-NH2 (linker 3-12 via mXylylene; reading uncertain) [3BP-4398] was tested, and the “t1/2 (half-life of the complex, SPR)” value was 2.1 to 5 min. {DOTA-PPAc″}-QCE[dP]D[Aph(5SaPyr2)]LTWSC-NH2 (linker 2-11 via mXylylene; reading uncertain) [3BP-4480] was tested, and the “t1/2 (half-life of the complex, SPR)” value was 2.1 to 5 min. With {DOTA-APAc}-VYCE[dP]D[Af3(HYDAc)]LTWSC-NH2 (linker 3-12 via mXylylene; reading uncertain) [3BP-4371] the “t1/2 (half-life of the complex, SPR)” value was 2.1 to 5 min. For {DOTA-PPAc″}-YCE[dP]DWLTWSC-NH2 (linker 2-11 via mXylylene; reading uncertain) [3BP-4446], the “t1/2 (half-life of the complex, SPR)” value was 2.1 to 5 min. In the case of {DOTA-APAc}-VYCE[dP]D[Af3(HO-Dga)]LTWSC-NH2 (linker 3-12 via 3MeBn″; reading uncertain) [3BP-4368], the “t1/2 (half-life of the complex, SPR)” value is reported as 2.1 to 5 min.

Each binder was assayed against T1, Fc-fusion protein of human carbonic … (assay: SPR, captured hCAIX-Fc; t1/2 category B: 5.1-15.0 min).
With {DOTA-PPAc″}-YCE[dP]D[Aph(2Ta5Sa)″]LTWSC-NH2 (linker 2-11 via mXylylene; reading uncertain) [3BP-4457] the “t1/2 (half-life of the complex, SPR)” value was 5.1 to 15 min. In the case of {DOTA-APAc}-VDCE[dP]D[Phe(3,4-Cl2)]LTW[Dap]C-NH2 (lactam 2-11; linker 3-12 via mXylylene; reading uncertain) [3BP-4439], the “t1/2 (half-life of the complex, SPR)” value is reported as 5.1 to 15 min. In the case of {DOTA-APAc}-VDCE[dP]D[Phe(3-CF3)]LTW[Dap]C-NH2 (lactam 2-11; linker 3-12 via mXylylene; reading uncertain) [3BP-4440], the “t1/2 (half-life of the complex, SPR)” value is reported as 5.1 to 15 min.

What follows are binders tested against T2, human carbonic anhydrase IX (CAIX) (human, UniProt Q16790 38-459) (assay: FACS competition, HT-29 cells, tracer 3BP-4149; pIC50 category A: >8.0).
Protocol: (§3) CAIX-expressing human HT-29 colorectal cancer cells (DSMZ, RRID: CVCL_0320) were cultured in McCoys's 5A modified medium (Biochrom, #F1015) including 10% fetal calf serum (FCS), 2 mM L-glutamine, 100 U/ml penicillin and 100 μg/mL streptomycin. Cells were detached with Accutase (Biolegend, #423201) and washed in FACS buffer (PBS including 1% FCS). Cells were diluted in FACS buffer to a final concentration of 500.000 cells per ml. 200 μL of the cell suspension were transferred to a u-shaped non-binding 96-well plate (Greiner) and cells were washed in ice-cold FACS buffer.
(§4) When biotinylated compounds were used an additional incubation step with 1 μg/mL APC-Streptavidin (Miltenyi; #130-106-791) in 50 μL FACS buffer for 30 minutes on ice was performed.
(§5) Cells were washed twice with ice-cold FACS buffer and analyzed in an Attune NxT flow cytometer (Thermo Fisher). Median fluorescence intensities (MFI) of the APC/Cy5-channel were calculated by Attune NxT software.
In the case of {DOTA-PPAc″}-YCE[dP]D[Aph(2Ta5Sa)″]LTWSC-NH2 (linker 2-11 via mXylylene; reading uncertain) [3BP-4457], the pIC50 is reported as > 8 pic50. For {DOTA-APAc}-VDCE[dP]D[Phe(3,4-Cl2)]LTW[Dap]C-NH2 (lactam 2-11; linker 3-12 via mXylylene; reading uncertain) [3BP-4439], the pIC50 was > 8 pic50. {DOTA-APAc}-VDCE[dP]D[Phe(3-CF3)]LTW[Dap]C-NH2 (lactam 2-11; linker 3-12 via mXylylene; reading uncertain) [3BP-4440] was tested, and the pIC50 was > 8 pic50.

Each binder was assayed against T2, human carbonic anhydrase IX (CAIX) (assay: FACS competition, HT-29 cells, tracer 3BP-4149; pIC50 category B: 7.1-8.0).
Protocol: as §3, §4, §5
{DOTA-APAc}-VYCE[dP]D[Aph(4SaBz)]LTWSC-NH2 (linker 3-12 via mXylylene; reading uncertain) [3BP-4398] gave a pIC50 of 7.1 to 8 pic50. For {DOTA-PPAc″}-QCE[dP]D[Aph(5SaPyr2)]LTWSC-NH2 (linker 2-11 via mXylylene; reading uncertain) [3BP-4480], the pIC50 was 7.1 to 8 pic50. {DOTA-APAc}-VYCE[dP]E(N4Inda)WLTWSC-NH2 (linker 3-12 via mXylylene; reading uncertain) [3BP-4387] was tested, and the pIC50 was 7.1 to 8 pic50. {DOTA-APAc}-VYCE[dP]D[Af3(HYDAc)]LTWSC-NH2 (linker 3-12 via mXylylene; reading uncertain) [3BP-4371] was tested, and the pIC50 was 7.1 to 8 pic50. {DOTA-PPAc″}-YCE[dP]DWLTWSC-NH2 (linker 2-11 via mXylylene; reading uncertain) [3BP-4446] was tested, and the pIC50 was 7.1 to 8 pic50. B1 was tested, and the pIC50 was 7.1 to 8 pic50. In the case of {DOTA-APAc}-VYCE[dP]D[Af3(HO-Dga)]LTWSC-NH2 (linker 3-12 via 3MeBn″; reading uncertain) [3BP-4368], the pIC50 is reported as 7.1 to 8 pic50. Work on {DOTA-PPAc}-DCE[dP]D[Aph(SaPr)]LTW[Dap]C-NH2 (lactam 1-10; linker 2-11 via mXylylene) [3BP-4498] yielded a pIC50 of 7.1 to 8 pic50. {DOTA-APAc}-VYCE[dP]E(NH3PhSa)WLTWSC-NH2 (linker 3-12 via mXylylene; reading uncertain) [3BP-4441] was tested, and the pIC50 was 7.1 to 8 pic50. Work on {DOTA-APAc}-VYCE[dP]E(NH4PhSa)WLTWSC-NH2 (linker 3-12 via mXylylene; reading uncertain) [3BP-4442] yielded a pIC50 of 7.1 to 8 pic50.

Source: patent publication US20250339569A1 (3B PHARMACEUTICALS, published 2025)
